Our source for the CXCL1 Level (pg/mL) in plasma of mice challenged with human TNFα, inhibition of killing of L929 cells by human non-cleavable membrane bound TNFα CHO cells (IC50, MTT assay) and mIL22 Level (pg/mL) in plasma of mice challenged with human IL-23 values is US20160122429A1.

Assay in all cases: cell-based or functional assay
For experiment [1], the target named is human TNFα (soluble) (human) (UniProt P01375).
Experiment [2] has as its target human non-cleavable membrane bound TNFα on CHO cells (human) (UniProt P01375).
A further experiment addresses human IL-23 (human) (UniProt Q9NPF7).

Chain of human TNFα (soluble) (human) (P01375 77-233 limits assumed): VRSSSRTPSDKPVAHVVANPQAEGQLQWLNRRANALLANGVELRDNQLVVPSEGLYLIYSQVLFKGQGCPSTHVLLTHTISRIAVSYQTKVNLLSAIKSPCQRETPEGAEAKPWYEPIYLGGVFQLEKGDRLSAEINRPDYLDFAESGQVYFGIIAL
Chain of human IL-23 (human) (Q9NPF7 20-189, chain 1 of 2): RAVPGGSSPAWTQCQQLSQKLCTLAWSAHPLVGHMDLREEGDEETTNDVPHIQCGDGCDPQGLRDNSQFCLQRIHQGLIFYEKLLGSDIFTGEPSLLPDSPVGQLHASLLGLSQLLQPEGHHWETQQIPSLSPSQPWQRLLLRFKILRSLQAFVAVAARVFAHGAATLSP
Chain of human IL-23 (human) (P29460 23-328, chain 2 of 2, further chain): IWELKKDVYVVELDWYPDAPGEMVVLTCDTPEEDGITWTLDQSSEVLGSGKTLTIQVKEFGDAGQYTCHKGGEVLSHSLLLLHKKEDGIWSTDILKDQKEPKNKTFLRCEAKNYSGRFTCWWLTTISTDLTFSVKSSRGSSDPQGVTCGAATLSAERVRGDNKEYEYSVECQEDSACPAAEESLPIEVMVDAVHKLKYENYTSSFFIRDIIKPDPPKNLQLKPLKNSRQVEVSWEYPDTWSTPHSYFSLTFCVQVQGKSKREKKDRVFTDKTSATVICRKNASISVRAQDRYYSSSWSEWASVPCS
Chain of human non-cleavable membrane bound TNFα on CHO cells (human) (P01375 whole entry): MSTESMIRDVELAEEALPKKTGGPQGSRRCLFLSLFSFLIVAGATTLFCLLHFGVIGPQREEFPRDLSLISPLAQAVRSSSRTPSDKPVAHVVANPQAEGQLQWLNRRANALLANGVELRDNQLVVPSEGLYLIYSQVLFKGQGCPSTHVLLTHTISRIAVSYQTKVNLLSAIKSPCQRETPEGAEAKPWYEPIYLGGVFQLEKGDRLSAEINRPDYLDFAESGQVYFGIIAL

Regarding “Adalimumab with IgG1 isotype (parental TNFα antibody)”, the CXCL1 Level (pg/mL) in plasma of mice challenged with human TNFα in experiment [1] amounted to 633 pg/mL. In experiment [2], this substance gave an inhibition of killing of L929 cells by human non-cleavable membrane bound TNFα CHO cells (IC50, MTT assay) of 581 pM.

As for human IgG1 isotype control antibody, the mIL22 Level (pg/mL) in plasma of mice challenged with human IL-23 with human IL-23 (human) came to 132 pg/mL. This substance also yielded a CXCL1 Level (pg/mL) in plasma of mice challenged with human TNFα in experiment [1] of 2420 pg/mL.
